These results are taken from article PMC2377097, “Unc45b Forms a Cytosolic Complex with Hsp90 and Targets the Unfolded Myosin Motor Domain” (PLoS ONE, 2008).

This data set deals with the molecule itself. Put plainly: SEC; Superose 6 HR 10/300, 50 mM Tris-HCl pH 7.4, 150 mM NaCl, 1 mM DTT; purified proteins run alone or as a complex formed from equimolar amounts. (In general: In gel filtration, larger molecules generally elute earlier.)

B1: rabbit reticulocyte lysate Hsp90 (natural protein)
chain: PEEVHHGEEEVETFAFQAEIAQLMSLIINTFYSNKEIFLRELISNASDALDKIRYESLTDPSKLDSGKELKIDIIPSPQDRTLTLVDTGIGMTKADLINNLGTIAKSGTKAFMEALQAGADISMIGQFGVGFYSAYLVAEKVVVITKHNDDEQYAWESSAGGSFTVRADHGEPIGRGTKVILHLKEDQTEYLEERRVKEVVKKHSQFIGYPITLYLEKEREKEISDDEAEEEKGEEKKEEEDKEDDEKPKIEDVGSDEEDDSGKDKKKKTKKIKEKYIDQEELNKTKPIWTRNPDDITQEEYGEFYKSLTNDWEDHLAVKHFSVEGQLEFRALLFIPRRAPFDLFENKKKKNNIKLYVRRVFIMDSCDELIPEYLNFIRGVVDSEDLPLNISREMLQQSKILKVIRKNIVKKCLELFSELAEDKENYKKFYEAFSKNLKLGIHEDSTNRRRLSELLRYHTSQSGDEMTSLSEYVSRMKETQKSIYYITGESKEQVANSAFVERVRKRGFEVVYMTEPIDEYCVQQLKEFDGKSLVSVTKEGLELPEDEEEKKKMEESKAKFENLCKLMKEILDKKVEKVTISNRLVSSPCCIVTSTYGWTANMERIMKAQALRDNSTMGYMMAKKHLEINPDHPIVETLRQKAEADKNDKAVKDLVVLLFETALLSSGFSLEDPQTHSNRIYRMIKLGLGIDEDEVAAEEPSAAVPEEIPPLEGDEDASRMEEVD
One may read the stoichiometry N as a count of units in the complex or per binding partner. For B1, the “stoichiometry N” value was determined as 2.
